Measured values as given in US20190300623A1 (POLYTHERICS, published 2019).

B1: AB-03 (antibody, human IgG1, V domains shown)
VH: EVQLVQSGAEVKKPGASVKVSCKASGYTFTEYTIHWVRQAPGKGLEWIGNINPNNGGTTYNQKFEDRVTITVDKSTSTAYMELSSLRSEDTAVYYCAGGWTFDYWGQGTTVTVSS
VL: DIQMTQSPSTLSASVGDRVTITCKASQDVGTAVDWYQQKPGQAPKLLIYWASTRHTGVPDRFSGSGSGTDFTLTISRLQPEDFAVYYCQQFTRYPLTFGQGTKVDIK
notes: Variable domains only; Expressed as human IgG1 (G1m3) / kappa (Km3)
B2: AB-04 (antibody, human IgG1, V domains shown)
VH: EVQLVQSGAEVKKPGASVKVSCKASGYTFTEYTIHWVRQAPGKGLEWIGNINPNNGGTTYNQKFEDRVTITVDKSTSTAYMELSSLRSEDTAVYYCAGAWTMDYWGQGTTVTVSS
VL: DIQMTQSPSTLSASVGDRVTITCKASQDVGTAVDWYQQKPGQAPKLLIYWASTRHTGVPDRFSGSGSGTDFTLTISRLQPEDFAVYYCQQFTRYPLTFGQGTKVDIK
notes: as for B1
B3: AB-02 (antibody, human IgG1, V domains shown)
VH: EVQLVQSGAEVKKPGASVKVSCKASGYTFTEYTIHWVRQAPGKGLEWIGNINPNNGGTTYNQKFEDRVTITVDKSTSTAYMELSSLRSEDTAVYYCAAYWLFDYWGQGTTVTVSS
VL: DIQMTQSPSTLSASVGDRVTITCKASQDVGTAVDWYQQKPGQAPKLLIYWASTRHTGVPDRFSGSGSGTDFTLTISRLQPEDFAVYYCQQYNSYPLTFGQGTKVDIK
notes: as for B1
B4: AB-08-mc-val-cit-PAB-MMAE (antibody, V domains shown)
VH: QVQLVESGGGVVQPGRSLRLSCAASGFAFSRYGMHWVRQAPGKGLEWVAVIWYDGSNKYYADSVKGRFTISRDNSKNTQYLQMNSLRAEDTAVYYCARGGDFLYYYYYGMDVWGQGTTVTVSS
VL: DIQMTQSPSSLSASVGDRVTITCRASQGISNYLAWYQQKTGKVPKFLIYEASTLQSGVPSRFSGGGSGTDFTLTISSLQPEDVATYYCQNYNSAPFTFGPGTKVDIK
modifications: mc-val-cit-PAB-MMAE (maleimide reagent) conjugated after TCEP reduction; average DAR 3.5 (±0.2); attachment residues not given
B5: AB-02-mc-val-cit-PAB-MMAE (antibody, human IgG1, V domains shown)
VH: EVQLVQSGAEVKKPGASVKVSCKASGYTFTEYTIHWVRQAPGKGLEWIGNINPNNGGTTYNQKFEDRVTITVDKSTSTAYMELSSLRSEDTAVYYCAAYWLFDYWGQGTTVTVSS
VL: DIQMTQSPSTLSASVGDRVTITCKASQDVGTAVDWYQQKPGQAPKLLIYWASTRHTGVPDRFSGSGSGTDFTLTISRLQPEDFAVYYCQQYNSYPLTFGQGTKVDIK
modifications: mc-val-cit-PAB-MMAE (maleimide reagent) conjugated after TCEP reduction; average DAR 3.5 (±0.2); attachment residues not given
B6: AB-04-mc-val-cit-PAB-MMAE (antibody, human IgG1, V domains shown)
VH: EVQLVQSGAEVKKPGASVKVSCKASGYTFTEYTIHWVRQAPGKGLEWIGNINPNNGGTTYNQKFEDRVTITVDKSTSTAYMELSSLRSEDTAVYYCAGAWTMDYWGQGTTVTVSS
VL: DIQMTQSPSTLSASVGDRVTITCKASQDVGTAVDWYQQKPGQAPKLLIYWASTRHTGVPDRFSGSGSGTDFTLTISRLQPEDFAVYYCQQFTRYPLTFGQGTKVDIK
modifications: mc-val-cit-PAB-MMAE (maleimide reagent) conjugated after TCEP reduction; average DAR 3.5 (±0.2); attachment residues not given
B7: AB-03-mc-val-cit-PAB-MMAE (antibody, human IgG1, V domains shown)
VH: EVQLVQSGAEVKKPGASVKVSCKASGYTFTEYTIHWVRQAPGKGLEWIGNINPNNGGTTYNQKFEDRVTITVDKSTSTAYMELSSLRSEDTAVYYCAGGWTFDYWGQGTTVTVSS
VL: DIQMTQSPSTLSASVGDRVTITCKASQDVGTAVDWYQQKPGQAPKLLIYWASTRHTGVPDRFSGSGSGTDFTLTISRLQPEDFAVYYCQQFTRYPLTFGQGTKVDIK
modifications: mc-val-cit-PAB-MMAE (maleimide reagent) conjugated after TCEP reduction; average DAR 3.5 (±0.2); attachment residues not given
B8: AB-05-mc-val-cit-PAB-MMAE (antibody, human IgG1, V domains shown)
VH: EVQLVQSGAEVKKPGASVKVSCKASGYTFTEYTIHWVRQAPGKGLEWIGNINPNNGGTTYNQKFEDRVTITVDKSTSTAYMELSSLRSEDTAVYYCAAYWLFDYWGQGTTVTVSS
VL: DIQMTQSPSTLSASVGDRVTITCKASQDVGTAVDWYQQKPGQAPKLLIYWASTRHTGVPDRFSGSGSGTDFTLTISRLQPEDFAVYYCQQYNAYSLTFGQGTKVDIK
modifications: mc-val-cit-PAB-MMAE (maleimide reagent) conjugated after TCEP reduction; average DAR 3.5 (±0.2); attachment residues not given
B9: AB-09-mc-val-cit-PAB-MMAE (antibody, IgG1, V domains shown)
VH: QVQLVESGGGVVQPGRSLRLSCAASGFTFSNYVMHWVRQAPGKGLEWVAIIWYDGSNKYYADSVKGRFTISRDNSKNTLYLQMNSLRAEDTAVYYCAGGYNWNYEYHYYGMDVWGQGTTVTVSS
VL: DIQMTQSPSSLSASVGDRVTITCRASQGITNYLAWFQQKPGKAPKSLIYAASSLQSGVPSKFSGSGSGTDFSLTISSLQPEDFATYYCQQYNSYPITFGQGTRLEIK
modifications: mc-val-cit-PAB-MMAE (maleimide reagent) conjugated after TCEP reduction; average DAR 3.5 (±0.2); attachment residues not given
B10: AB-05 (antibody, human IgG1, V domains shown)
VH: EVQLVQSGAEVKKPGASVKVSCKASGYTFTEYTIHWVRQAPGKGLEWIGNINPNNGGTTYNQKFEDRVTITVDKSTSTAYMELSSLRSEDTAVYYCAAYWLFDYWGQGTTVTVSS
VL: DIQMTQSPSTLSASVGDRVTITCKASQDVGTAVDWYQQKPGQAPKLLIYWASTRHTGVPDRFSGSGSGTDFTLTISRLQPEDFAVYYCQQYNAYSLTFGQGTKVDIK
notes: as for B1

These binders were tested against T1, recombinant human PSMA (R&D Systems) (human, UniProt Q04609 44-750) (assay: SPR (Biacore T200), antibody captured on Protein A chip, recombinant human PSMA as analyte, 25 C).
T1 construct: Bought protein used as the Biacore analyte; also called PSMA antigen; PSMA analyte
T1 sequence (Q04609 44-750 limits assumed): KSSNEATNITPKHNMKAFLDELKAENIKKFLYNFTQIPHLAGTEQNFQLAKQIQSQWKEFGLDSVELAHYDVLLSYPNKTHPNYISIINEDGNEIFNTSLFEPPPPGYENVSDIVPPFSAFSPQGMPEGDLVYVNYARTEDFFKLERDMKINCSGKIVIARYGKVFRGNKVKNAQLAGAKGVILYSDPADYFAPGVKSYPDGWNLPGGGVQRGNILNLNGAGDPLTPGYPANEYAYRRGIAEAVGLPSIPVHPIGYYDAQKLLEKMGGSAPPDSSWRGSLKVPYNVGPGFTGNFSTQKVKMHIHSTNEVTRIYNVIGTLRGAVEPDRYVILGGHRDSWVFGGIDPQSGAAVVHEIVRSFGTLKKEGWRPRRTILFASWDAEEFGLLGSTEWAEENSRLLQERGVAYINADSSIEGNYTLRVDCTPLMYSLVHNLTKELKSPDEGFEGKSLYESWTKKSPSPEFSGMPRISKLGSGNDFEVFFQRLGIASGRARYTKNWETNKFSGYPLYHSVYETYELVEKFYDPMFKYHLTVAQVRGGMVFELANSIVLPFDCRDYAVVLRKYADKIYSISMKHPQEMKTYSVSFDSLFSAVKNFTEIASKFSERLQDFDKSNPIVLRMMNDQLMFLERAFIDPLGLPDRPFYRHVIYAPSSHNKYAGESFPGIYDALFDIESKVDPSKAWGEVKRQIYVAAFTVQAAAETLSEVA
B1 was tested, and the Kd was 0.245 nM.

Each binder was assayed against T1, recombinant human PSMA (R&D Systems) (assay: SPR (Biacore T200), relative to AB-01 on the same chip).
B2 was tested, and the “Relative KD” value was 1.56. For B3, the “Relative KD” value was 1.98.

What follows are binders tested against PSMA on PSMA-positive LNCaP (clone FGC) and C4-2 cells (assay: cell-based or functional assay).
With B4 the “IC50 (nM), anti-proliferative effect on C4-2 cells (CellTiter Glo viability)” value (shortened to “IC50 … on C4-2 cells (CellTiter Glo viability)”) was 0.31 nM and the “IC50 (nM), anti-proliferative effect on LNCaP cells (CellTiter Glo viability)” value (shortened to “IC50 … on LNCaP cells (CellTiter Glo viability)”) was 1.03 nM. In the case of B5, the “IC50 … on C4-2 cells (CellTiter Glo viability)” value is reported as 0.18 nM and the “IC50 … on LNCaP cells (CellTiter Glo viability)” value is reported as 0.61 nM. In the case of B6, the “IC50 … on C4-2 cells (CellTiter Glo viability)” value is reported as 0.21 nM and the “IC50 … on LNCaP cells (CellTiter Glo viability)” value is reported as 0.67 nM. In the case of B7, the “IC50 … on C4-2 cells (CellTiter Glo viability)” value is reported as 0.22 nM and the “IC50 … on LNCaP cells (CellTiter Glo viability)” value is reported as 0.7 nM. For B8, the “IC50 … on C4-2 cells (CellTiter Glo viability)” value was 0.41 nM and the “IC50 … on LNCaP cells (CellTiter Glo viability)” value was 1.27 nM. With B9 the “IC50 … on C4-2 cells (CellTiter Glo viability)” value was 0.24 nM and the “IC50 … on LNCaP cells (CellTiter Glo viability)” value was 0.89 nM.

Biological target: T1, recombinant human PSMA (R&D Systems)
Assay: SPR (Biacore T200), antibody captured on Protein A chip, recombinant human PSMA as analyte, 25 C
Remark: another data set of the same source
With B10 the Kd was 0.224 nM.

Biological target: T1, recombinant human PSMA (R&D Systems)
Assay: as above
Remark: another data set of the same source
B2 showed a Kd of 0.354 nM. B3 gave a Kd of 0.28 nM.
